Protein production data for 20 sequences are collected here from a protein production outcome set (Wang et al. 2014).

This series can be described thus: label from the status in PepcDB records.
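Further: failed if final PepcDB status was selected cloned or expressed and not failed if soluble or beyond.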

On to “MQQKDAVPDTAKKLKAPLTGLKTEQKVTERRPVAVVVNNHPKARPQSGLSKADIVIEALAEGQITRFLAIFQSQMPETVGPVRSAREYFVTLSNGFDSIFVHHGWSPGAKKQLESGAADYMNGLDFDGSLFWRADFSKPPHNSYTSYDYIKKAAEQKGYKLKQETNPLLFQTSDAKPANESYNVRVDYGTNNVTNLVEYNYDKKAEFYTRSSDGVITTDRETGKPVAMQNIFIVEASHHIIDQDGRRDIDLESGGKGLLFQHGNVIETDWKQVNGRIVPVKDGKWLPFVPGKTWINIVPDLDAASISKGEGVLEHHHHHH”, for which the protein production entry is given as “not failed”.
The result for “MQQLQNVIETAFERRADITPANVDTVTREAITHVIDLLDTGALRVAEKIDGQWVTHQWLKKAVLLSFRINDNQVMEGAETRYYDKVPMKFAGYDEARFQREGFRVVPPATVRKGAFIARNTVLMPSYVNIGAFVDEGTMVDTWATVGSCAQIGKNVHLSGGVGIGGVLEPLQANPTIIEDNCFVGARSEVVEGVIVEEGSVISMGVFIGQSTRIYDRETGEVHYGRVPAGSVVVSGNLPSKDGSYSLYCAVIVKKVDAKTRSKVGINELLRTID” reads “not failed”.
Turning to “MQQYAPTIQRALLFGLLIILLLLGFHILKYFIVPVVWAAIIAYMTWPIYIGIQRFCGENRPNLSATLMISLIILVIGIPLTFAVFMLQHEGRNLFIELQQQIFSGHLSAPDFIRELPLVGNEITRILNEINTNPSNLTQNLSLWIQSHMGYGRFVLSEISKNLVKLCFALLSLFFFYRDGHTILNQVSKALEMVIGPRIHHYMDTISETTRAVVYGVGLTAVAQAILAGLSYFVAGVPNPMVLTIVTFLLALIPFGTPLAYTSVALWLFSQGQMMGAIGVMLWGVCIVSTSDNVIRPLVISGATQIPFLLIMFGVLGGLASFGLVGLFIGPVILAILLAIWREWLHENIEPEPVPKATLIYDDLDDQTKL”, the protein production entry is on record as “failed”.
Consider “MQRAAVFDVDGTLVDTNHLHVTTWWEAFRQAGHRVPMHAVHRAVGLASGDLVARLLGEDRDKEQDAELSAAHKALYGQYFDRLPALPGAGDLLRRLAADGWTVVLATSAGGSELGALRRAIDADDAIEATASADDVDAGKPAPEPVEHALELAGVPAERAVFVGDTVWDMRAGSRAGVRCVGVLCGGLPRADLEEAGAEAVYADPADLLASLRGSPLA”, for which the protein production entry is given as “failed”.
The result for “MQRANREHLEIISLEEISMLVSSDFDLPEVLQHVTAKVATQLKVSVCNIYLREGDEVVLAATHGFDPAFIGKIRIKIGDGITGSVARDGQYISLSRASQDPRYRYFPELQEEKYNSMLSFPIGDKKEVYGVINLNTTSIRSFHEDEIYFVSIIANLILTAIKLRQQVASSRKAAEASA” reads “not failed”; that for “MQRDVSSCNTYNYGDALYWDARYVQDALSFDWYQCYSSLRPFVRSFVSTSSRVLMVGCGNSLMSEDMVKDGYEDIMNVDISSVAIEMMQTKYASVPQLKYMQMDVRDMSYFEDDSFDTIIDKGTLDSLMCGSDALLSASRMLGEVSRLIKPGGTYFLITYGDPKVRMPHLTRSAYNWKISLYIIPRPGFKRPESCSSSAKSCMEAIPITSEGMLPHDYVLEDPDSHFIYICKKKDEDEEAQLPSYPLMEDVL”, “failed”.
“MQREKVDVLVIGAGPAGTVAASLVNKSGFKVKIVEKQKFPRFVIGESLLPRCMEHLDEAGFLDAVKAQGFQQKFGAKFVRGKEIADFNFSDQFSNGWNWTWQVPRGNFDKTLADEAARQGVDVEYEVGVTDIKFFGTDSVTTIEDINGNKREIEARFIIDASGYGRVIPRMFGLDKPSGFESRRTLFTHIKDVKRPVAAEMEGNRITAVVHKPKVWIWVIPFSNGNTSVGFVGEPSYFDEYTGTPEERMRAMIANEGHIAERFKSEEFLFEPRTIEGYAISASKLYGDGFVLTGNATEFLDPIFSSGATFAMESGSKGGKLAVQFLKGEEVNWEKDFVEHMMQGIDTFRSFVTGWYDGTLHAVFFAKNPDPDHKRMICSVLAGYVWDKNNPFVKKHNTILKTLAKVIQMGEEALEHHHHHH”: the protein production result is given as “not failed”.
To “MQRNLSHIISQATSAPLLLEPAYARVFFCALGRESGINSLHIPGNNESLDQSDMALVTGDFMATGKPQARFYQVVNGIAVLPVTGTLVHKLGGMRPFSGMTGYDGVTARLQQAVSDPEVKGILLDIDSPGGQAAGAFDCADMIYRMREQKPVWALANETACSAAMLLAAACSHRLVTQTSRMGSIGVVMAHTSYAEKLKQEGIDITLIYSGAHKADLTPSQKLPESVYADYQQRMDEARKMFAEKVARYTGLSVDAVMATEAAVYDGQAIITTGLADGMVNAADAIGVMAEAINSNKTGGTMPELSAADAVTQENQRVMGILGCPEARGHEALAQMLAGQPGMSVAQAKSILAAAAPADTTSTADRILALEEAGGRETLAQTLAAMPEMTVEQARTILAASPIAAATSLHDAVMALDEAKGREELAEKLAVMPGMTTDQARDLLAAAPDKSGNAGLSMNNAFDAFMQSHSPGPISGGKGHSNDTETTLLMSIPGTSAT” belongs “failed”; to “MQRTGELPAEHVPVILESSGAGDFHLIDSGNGLKLEQYGDYRVVRPEAQALWRPLVPDRVWQNADAIFTGDTDEDGMGRWRFPKEALGETWPLSLLGVEFLGRFTAFRHVGVFPEQIVHWEWLKNAVETADRPLKVLNLFGYTGVASLVAAAAGAEVTHVDASKKAIGWAKENQVLAGLEQAPIRWICEDAMKFIQREERRGSTYDIILTDPPKFGRGTHGEVWQLFDHLPLMLDICREILSPKALGLVLTAYSIRASFYSMHELMRETMRGAGGVVASGELVIREAGLDGKTPGRVLSTSLFSRWEPK”, “not failed”.
To “MQRTLGEIMKIYFATGNPNKIKEANIILKDLKDVEIEQIKISYPEIQGTLEEVAEFGAKWVYNILKKPVIVEDSGFFVEALNGFPGTYSKFVQETIGNEGILKLLEGKDNRNAYFKTVIGYCDENGVRLFKGIVKGRVSEEIRSKGYGFAYDSIFIPEEEERTFAEMTTEEKSQISHRKKAFEEFKKFLLDRI” belongs “not failed”; to “MQRYDAVISGAGPAGCSAALSLAQKGRRVLLIDKARFPREKICGDGVTAASTELLEEMGVLELLRQRPGSLTEFRGATFVSPGGTVVQGRILRNGHLSGSSYVIPRMVLDDSLVSRVKEHSSITFLDKTTVTGLVMDGDRARGVATSAGEFCGRIIIAADGAYSPIAKQLDLWNRDKRQQGFAMRAWFSGVEGLGDSIELCYDKAMLPGYGWIFPAGEQRANVGVFLLPRFADQRSTKRLFKSFVKENAFAAARLKNAVMEPGSLKSWPLPFGSFAGRRGRGNVLLAGDAGSFIDPLTGEGIYYALKTGRYAAEAVANALERNDESAALTRYEQLWRGEFSGRVYFPGYAFQHFMNNSWFVDTFMRYTAKKQHRADLLADVVAHNRKRRELFKLLNPFYLEHHHHHH”, “failed”.
To “MQSINFRTARGNLSEVLNNVEAGEEVEITRRGREPAVIVSKATFEAYKKAALDAEFASLFDTLDSTNKELVNRLEHHHHHH” belongs “not failed”; to “MQSNLLAVLFALASALTIAWGTVVRHRIALRTPKDGSLRSSPLLNALMTPMWWAGMSTAMLAYFLQTVALGFGTLLVVQPVLVLSLMFTLPLSARFNGYRLRRTEIFWATLLTVAVGIMIVLGRPLPGNPHPPLDRWIPVLLVGVAVMGGMWLLAEYVLKKDKALILGLVTGALFGYVAVMSKAAVDLFVHQGITGLILNWEGYGLILTALLGTIVQQYSFNAGELQKSLPAMTIAEPIVAFSLGYLVLGEKFQVVDWEWIAMGIALLVMIVSTIALSRTSTMPAGSKR”, “failed”; to “MQSPEKIDPTWEDSVIDSFISFVRSYDGDFTCIYKLADTVSDEYSLQKIIDFLSSTPQGKQAFQKRPQLGVVDLPKLHQLPTDTLGYVYADQMLQNNLQPLQSHEIDNDYQFFKTHITETHDLWHIVTGADTSILGEIQLEAFYVSQLYASRFWLALLAKNLLKAVIYDIELSTPYMDAISTGWVMAKQAKPLFGLEWNLLWEKPLADVRTSLNIILPVNLEHHHHHH”, “not failed”.
As for “MQSPNNDYNATSKRGWFTRFLDGVEWLGNLLPHPITLFAVFCLFIIFISGIAAYFGVSAVDPRDGETVIKAVSLLNAEGIQRIVTNLVTNFTGFTPLGTVLVALLGVGVAERSGLISAAMRGLVMKAPPRLVTVTIVFAGVISNTAAELGYVVLVPLAAMIFYGLGRHPLAGLSAAFAGVSAGYSANLLIGTVDPLLSGITEEAAKIIDPAYTVGAEANWYFMMVSTFLIAIMGALITDKIVEPKLGKYNKDEASIDLSDQSSMDPLNKQEKRGLIYAGLSVLVLAGILALTVVPEWGILRHPETGDVKGSPFLKGVVVYIFFFFAIPGFVYGRTVETMRNDRDVIDAMSHSMSTMGMYIVLVFFAAQFVNFFKWTNFGTIFAINGAEFLTNIGMTGPIIFLFFIMVCGFVNLMLGSASAQWAITAPIFVPMLMLVGYSPEVIQAAYRIGDSVTNVITPMMSYFGLILAVAARYKKDLGIGTLVAMMLPYSMFFFVGWSVLFFLWVFVFGFPVGPAAPTYYN”, the protein production result is “not failed”.
With “MQSRLSKILRSSVVGVAVLALLAGCSNNADDTDADSTSTGNSAFPVSIEHEFGTTTIDDVPERVVTLGVTDADIVLALGTVPVGNTGYKFFENGLGPWTDELVEGKELTLLDSDSTPDLEQVAALEPDLIIGVSAGFDDVVYEQLSDIAPVVARPAGTAAYAVAREEATNLVARAMGQSEKGQELNEETDALIQAARDENPSFDGKTGTVILPYQGKYGAYLPGDARGQFLDSLGISLPEAVLSRDTGDSFFVDVPAESVKDVDGDVLLVLSNDENLDITAENPLFETLNVVQKDAVIVATTEERGAITYNSVLSVPFALEHLAPRIAEALK”, the protein production entry is reported as “failed”.
The result for “MQSYSDSKPGGATFALFETEHLKANIRRALVEAVLSPWQRTFLSDVLSKLERYGNRARLSHKQLLKLNEILGGNGTPRQDRVTTSRTTRHTRRPRFRSPSFLSRQIRWSRRRLARDAVVVALIVMVGLLYSVFETGPVQSFLGTVGKSSHVMGPVDQAFTVTDGDTVHVAGERAGTRLVGFNTPEKFSPQCEYERKLGERASSRLRELVKSPNLQLTKVPCACPAGSEGTDACNHGRSCGVLKVDGRDVGQILIGEGLAVPFICEGNRCPRTPRPWCGQQS” reads “failed”; that for “MQTINTHPVQPLKLDSEVQRQMNFQFLTAMKAFFTLLTTEDNIDAVDELSSILIHSRAFELAAESMQTDPEVAHLIKERYYAPVHDVEQLLQYPADSLGYLYASTLKESGFERIDPEIIVNSDTAYIEHRWQQTHDIWHLVTGFSASGIDEIGLQAFYLAQFRLPLASMLIANALMSATLLAPEDLPQLLQTIERGWTMGLQAKPLFAQKWEEAWEKPLSQWRDELNIQAFS”, “failed”.
To “MQTPKSRPGSLELPQKKSPLPAPKVVRRLKPSGAESDPKTKTISKTQIPKVVADRRSARIPLNEKKRTGRIPELESTISQLQEELKKAKEELNRSEALKREAQEEAEDAKHQLMDINASEDSRIEELRKLSQERDKTWQSELEAMQRQHGMDSTALSSAINEVQKLKSKLFESESELEQSKYEVRSLEKLVRQLEEERVNSRDSSSSMEVEELKEAMNLSRQEITQLKSAVEAAETRYQEEYIQSTLQIRSAYEQTEAVKSRYSQREAELTEELNRTKDEIEGLRKELMEKVKEDESTGDLKKLESDLMEVRGSLMDKEMELQILRSAMEKKVETANTEAMEAELKRVKIQCEQWRKAAETAASILNNDEERTDSIETSKMLKKFGVLLKKNHK” belongs “failed”.
The result for “MQTSIDPVFAGWDGSVAQARQLQQQLAQRVALRDEVSAAPALLAGFDVGFEDDGQTTRAAAVLLDAQTLLPLETHVARVPTSMPYVPGLLSFRELPALLRALALLARTPDLVFIDGQGIAHPRRFGIAAHFGVVTGLPSIGVAKQRLAGTFIEPGGERGDHSPILLAGAQIGWALRSKPRCNPLIVSPGHRVSMQGALDWTLRTLRAYRLPEPTRLADRLASRRGEIELQTQPTLLLEHHHHHH” reads “failed”.
